{"source": "paper PMC11358003", "about": "“A bispecific antibody approach for the potential prophylactic treatment of inherited bleeding disorders” (Nature Cardiovascular Research, 2024)", "key": {"[1]": {"target": "soluble extracellular fragment of TREM-like transcript-1 (Homo sapiens (Human).) (UniProt Q86YW5)", "experiment": "SPR; Biacore 8K, 25 °C; biAb (0.5-4 nM) captured on immobilised anti-human IgG (CM4 chip); FVIIa (0-4 nM) or sTLT-1 (0-60 μM) injected; 10 mM HEPES, 150 mM NaCl, 0.05% polysorbate 20, pH 7.4, 5 mM CaCl2, 1 mg/ml BSA; Langmuir 1:1 kinetics model; n = 2"}, "[2]": {"target": "recombinant zymogen FVII (Homo sapiens) (UniProt P08709)", "experiment": "SPR; Biacore 8K, 25 °C; FVIIa or FVII (2.5 nM) captured on immobilised anti-FVII IgG1 (against the Gla domain) on a CM4 chip; HMB-001 0-4 nM injected; 10 mM HEPES, 150 mM NaCl, 0.05% polysorbate 20, pH 7.4, 5 mM CaCl2, 1 mg/ml BSA; Langmuir 1:1 kinetics; n = 2"}, "[3]": {"target": "recombinant activated coagulation factor VII (rFVIIa, NovoSeven) (Homo sapiens) (UniProt P08709)", "experiment": "SPR; Biacore 8K, 25 °C; FVIIa or FVII (2.5 nM) captured on immobilised anti-FVII IgG1 (against the Gla domain) on a CM4 chip; HMB-001 0-4 nM injected; 10 mM HEPES, 150 mM NaCl, 0.05% polysorbate 20, pH 7.4, 5 mM CaCl2, 1 mg/ml BSA; Langmuir 1:1 kinetics; n = 2"}, "[4]": {"target": "recombinant activated coagulation factor VII (Homo sapiens) (UniProt P08709)", "experiment": "SPR; Biacore 8K, 25 °C; biAb (0.5-4 nM) captured on immobilised anti-human IgG (CM4 chip); FVIIa (0-4 nM) or sTLT-1 (0-60 μM) injected; 10 mM HEPES, 150 mM NaCl, 0.05% polysorbate 20, pH 7.4, 5 mM CaCl2, 1 mg/ml BSA; Langmuir 1:1 kinetics model; n = 2"}, "[5]": {"target": "soluble extracellular fragment of TREM-like transcript-1 (Homo sapiens (Human).) (UniProt Q86YW5)", "experiment": "SPR; Biacore 8K, 25 °C; biAb (0.5-4 nM) captured on immobilised anti-human IgG (CM4 chip); FVIIa (0-4 nM) or sTLT-1 (0-60 μM) injected; 10 mM HEPES, 150 mM NaCl, 0.05% polysorbate 20, pH 7.4, 5 mM CaCl2, 1 mg/ml BSA; Langmuir 1:1 kinetics model; n = 2", "remark": "listed apart in the source"}, "[6]": {"target": "soluble extracellular fragment of TLT-1 (sTLT-1) (human) (UniProt Q86YW5)", "experiment": "SPR; Biacore 8K, 25 °C; biAb (0.5-4 nM) captured on immobilised anti-human IgG on a CM4 chip; FVIIa (0-4 nM) or sTLT-1 (0-60 μM) injected; 10 mM HEPES, 150 mM NaCl, 0.05% polysorbate 20, pH 7.4, 5 mM CaCl2, 1 mg/ml BSA; Langmuir 1:1 kinetics; n = 2"}, "[7]": {"target": "recombinant zymogen FVII (Homo sapiens) (UniProt P08709)", "experiment": "SPR; Biacore 8K, 25 °C; FVIIa or FVII (2.5 nM) captured on immobilised anti-FVII IgG1 (CaFVII-22, against the Gla domain; CM4 chip); HMB-001 (0-4 nM) injected; 10 mM HEPES, 150 mM NaCl, 0.05% polysorbate 20, pH 7.4, 5 mM CaCl2, 1 mg/ml BSA; Langmuir 1:1 kinetics model; n = 2"}, "[8]": {"target": "recombinant activated coagulation factor VII (Homo sapiens) (UniProt P08709)", "experiment": "SPR; Biacore 8K, 25 °C; FVIIa or FVII (2.5 nM) captured on immobilised anti-FVII IgG1 (CaFVII-22, against the Gla domain; CM4 chip); HMB-001 (0-4 nM) injected; 10 mM HEPES, 150 mM NaCl, 0.05% polysorbate 20, pH 7.4, 5 mM CaCl2, 1 mg/ml BSA; Langmuir 1:1 kinetics model; n = 2"}, "[9]": {"target": "T1, recombinant activated coagulation factor VII (rFVIIa, NovoSeven) (Homo sapiens, UniProt P08709)", "T1 construct": "source: bought: NovoSeven, Novo Nordisk", "experiment": "SPR; SPR binding assay of the monovalent control antibodies with their antigens; format not told", "conditions": "both partners purified"}, "[10]": {"target": "T2, active site-inhibited FVIIa (FVIIai), prepared from FVIIa-desGLA (Homo sapiens, active site inhibited with H-D-Phe-Phe-Arg-chloromethyl ketone (FFR-cmk))", "T2 construct": "source: CHO cells (CHO-EBNA), purified (VIISelect, desalted), then incubated with FFR-cmk", "T2 chain 1": "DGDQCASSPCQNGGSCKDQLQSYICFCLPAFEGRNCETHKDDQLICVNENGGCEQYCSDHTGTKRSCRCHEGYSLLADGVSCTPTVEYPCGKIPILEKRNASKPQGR", "T2 chain 2": "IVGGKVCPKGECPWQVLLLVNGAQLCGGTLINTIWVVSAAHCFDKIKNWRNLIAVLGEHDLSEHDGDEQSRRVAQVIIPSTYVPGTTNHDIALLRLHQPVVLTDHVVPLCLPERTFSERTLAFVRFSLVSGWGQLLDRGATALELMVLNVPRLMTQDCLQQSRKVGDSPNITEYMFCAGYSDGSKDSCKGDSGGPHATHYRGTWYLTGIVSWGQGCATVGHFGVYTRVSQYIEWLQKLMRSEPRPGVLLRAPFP", "experiment": "crystal structure; SEC-purified Fab:FVIIai:sTF complex; sitting-drop vapor diffusion at 18 °C; 0.15 M CsCl, 15% PEG 3350; four complexes in the asymmetric unit", "conditions": "both partners purified"}, "[11]": {"target": "T3, active site-inhibited FVIIa:soluble TF complex (FVIIai:sTF) (human | , UniProt P08709;P13726, active site inhibited with H-D-Phe-Phe-Arg-chloromethyl ketone (FFR-cmk))", "T3 construct": "as the light chain of m8: factor VIIa light chain without the N-terminal Gla domain; as the heavy chain of m8: factor VIIa heavy chain (protease domain); as m9: tissue factor, amino acids 1-219; also called FVIIa:sTF complex; source: FVIIai from CHO cells and sTF from Escherichia coli; SEC-purified together with the Fab; copies: + +", "experiment": "crystal structure; SEC-purified Fab:FVIIai:sTF complex; sitting-drop vapor diffusion at 18 °C; 0.15 M CsCl, 15% PEG 3350; four complexes in the asymmetric unit", "conditions": "both partners purified"}, "[12]": {"target": "T4, sTLT-1 stalk peptide (37-mer TLT-1 peptide) (human)", "T4 construct": "TREM-like transcript-1 (TLT-1), amino acids 111-147 of mature TLT-1; numbers count on: the mature protein; Amino acids 7-21 of the peptide are seen in the crystal structure; also called synthetic stalk peptide of TLT-1; source: synthetic peptide", "T4 chain": "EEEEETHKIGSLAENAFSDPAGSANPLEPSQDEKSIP", "experiment": "crystal structure; gel-filtrated 1:1 Fab-sTLT-1 stalk peptide complex; sitting-drop vapor diffusion at 18 °C; 1 M LiCl, 0.1 M Na citrate-citric acid pH 4.0, 20% PEG 6000; two complexes in the asymmetric unit", "conditions": "both partners purified"}, "[13]": {"target": "T5, soluble extracellular fragment of TLT-1 (sTLT-1) (human, UniProt Q86YW5)", "T5 construct": "TREM-like transcript-1 (TLT-1), amino acids 1-147 of mature TLT-1 (IgV domain 1-110 and stalk 111-147); numbers count on: the mature protein; two amino acid (valine-aspartic acid) linker before the His tag, told in words; source: CHO cells (ExpiCHO), transient transfection, purified (HisTrap); not shown: His tag, C-terminal, kept", "experiment": "SPR; SPR binding assay of the monovalent control antibodies with their antigens; format not told", "conditions": "both partners purified"}}, "note": "Where “and” joins values, the source holds several entries; their conditions need not be identical. Equal entries are not always repeated. Where two headings read alike, the source gives them in different places."}
{"molecule": "HMB-001 (bispecific antibody)", "values": [{"measurement": "Kd", "setting": "[1]", "value": "2.33 nM and 2.35 nM"}, {"measurement": "koff", "setting": "[1]", "value": "0.00061 s⁻¹ and 0.000672 s⁻¹"}, {"measurement": "kon", "setting": "[1]", "value": "262000 M⁻¹ s⁻¹ and 286000 M⁻¹ s⁻¹"}, {"measurement": "Kd", "setting": "[2]", "value": 0.4, "unit": "nM"}, {"measurement": "Kd", "setting": "[3]", "value": 0.37, "unit": "nM"}, {"measurement": "Kd", "setting": "[4]", "value": 0.04, "unit": "nM"}, {"measurement": "koff", "setting": "[4]", "value": 0.000127, "unit": "s⁻¹"}, {"measurement": "kon", "setting": "[4]", "value": "2.9e+06", "unit": "M⁻¹ s⁻¹"}, {"measurement": "Kd", "setting": "[5]", "value": 2.34, "unit": "nM"}, {"measurement": "koff", "setting": "[5]", "value": 0.000641, "unit": "s⁻¹"}, {"measurement": "kon", "setting": "[5]", "value": 274000, "unit": "M⁻¹ s⁻¹"}, {"measurement": "Kd", "setting": "[6]", "value": 2.3, "unit": "nM"}, {"measurement": "Kd", "setting": "[7]", "value": 0.4, "unit": "nM"}, {"measurement": "koff", "setting": "[7]", "value": 0.000725, "unit": "s⁻¹"}, {"measurement": "kon", "setting": "[7]", "value": "1.83e+06 M⁻¹ s⁻¹ and 1.82e+06 M⁻¹ s⁻¹"}, {"measurement": "Kd", "setting": "[8]", "value": 0.37, "unit": "nM"}, {"measurement": "koff", "setting": "[8]", "value": "0.000664 s⁻¹ and 0.000665 s⁻¹ and 0.000666 s⁻¹"}, {"measurement": "kon", "setting": "[8]", "value": "1.8e+06", "unit": "M⁻¹ s⁻¹"}]}
{"molecule": "monovalent control antibody with the FVIIa-binding arm of HMB-001 (antibody, V domains shown, as the heavy chain of the anti-FVIIa arm of m1; Fab part in PDB 8CN9; constant part as in PDB 5DK3 with the DuoBody mutations (EU numbering); as the light chain of the anti-FVIIa arm of m1; light chain of the Fab in PDB 8CN9; empty Fc, E216-G446 in EU numbering; About 100 kDa; also called anti-FVIIa cAb; monovalent cAb; source: DuoBody assembly of the parental anti-FVIIa antibody with an empty …) VH: QVQLQESGPGLVKPSQTLSLTCTVSGYSISSDSAWSWIRQPPGKGLEWIGYIQYSGSTNYNPSLKSRVTISRDTSKNQFSLKLSSVTAADTAVYYCARSVNYYGNSFAVGYWGQGTLVTVSS VL: EIVLTQSPATLSLSPGERATLSCRASQGISDYLHWYQQKPGEAPRLLIKYTSQPATGIPARFSGSGSGTDFTLTISSLEPEDFAVYYCQNGHSFPLTFGQGTKLEIK", "values": [{"measurement": "binding result", "setting": "[9]", "value": "binds"}]}
{"molecule": "anti-FVIIa Fab fragment of HMB-001 (Fab, V domains shown, Fab part of the heavy chain of the anti-FVIIa arm of m1; heavy chain of the Fab in PDB 8CN9; as the light chain of the anti-FVIIa arm of m1; light chain of the Fab in PDB 8CN9; also called anti-FVII Fab of HMB-001; source: HEK293 suspension cells (293Expi), transient transfection, purified (MabSelect SuRe)) VH: QVQLQESGPGLVKPSQTLSLTCTVSGYSISSDSAWSWIRQPPGKGLEWIGYIQYSGSTNYNPSLKSRVTISRDTSKNQFSLKLSSVTAADTAVYYCARSVNYYGNSFAVGYWGQGTLVTVSS VL: EIVLTQSPATLSLSPGERATLSCRASQGISDYLHWYQQKPGEAPRLLIKYTSQPATGIPARFSGSGSGTDFTLTISSLEPEDFAVYYCQNGHSFPLTFGQGTKLEIK", "values": [{"measurement": "binding result", "setting": "[10]", "value": "binds"}, {"measurement": "binding result", "setting": "[11]", "value": "binds"}]}
{"molecule": "anti-TLT-1 Fab fragment of HMB-001 (Fab, V domains shown, Fab part of the heavy chain of the anti-TLT-1 arm of m1; heavy chain of the Fab in PDB 8CHE; as the light chain of the anti-TLT-1 arm of m1; light chain of the Fab in PDB 8CHE; source: CHO cells, purified (KappaSelect)) VH: EVQLVESGGGLVQPGGSLRLSCAASGFTFSRYWMTWVRQAPGKGLVWVGEINPDSSTINYAPSVKGRFTISRDNAKNTLYLQMNSLRAEDTAVYYCASGVFTSWGQGTLVTVSS VL: DIVMTQTPLSSPVTLGQPASISCRSSQSLVHRQGNTYFHWLQQRPGQPPRLLIYKVSNRFSGVPDRFSGSGAGTDFTLKISRVEAEDVGVYYCSQSTHVPYTFGQGTKLEIK", "values": [{"measurement": "binding result", "setting": "[12]", "value": "binds"}]}
{"molecule": "monovalent control antibody with the TLT-1-binding arm of HMB-001 (antibody, V domains shown, as the heavy chain of the anti-TLT-1 arm of m1 (without DuoBody mutations); Fab part in PDB 8CHE; constant part as in PDB 5DK3; as the light chain of the anti-TLT-1 arm of m1; light chain of the Fab in PDB 8CHE; empty Fc, E216-G446 in EU numbering; About 100 kDa; also called anti-TLT-1 cAb; monovalent cAb; source: DuoBody assembly of the parental anti-TLT-1 antibody with an empty Fc; purified by …) VH: EVQLVESGGGLVQPGGSLRLSCAASGFTFSRYWMTWVRQAPGKGLVWVGEINPDSSTINYAPSVKGRFTISRDNAKNTLYLQMNSLRAEDTAVYYCASGVFTSWGQGTLVTVSS VL: DIVMTQTPLSSPVTLGQPASISCRSSQSLVHRQGNTYFHWLQQRPGQPPRLLIYKVSNRFSGVPDRFSGSGAGTDFTLKISRVEAEDVGVYYCSQSTHVPYTFGQGTKLEIK", "values": [{"measurement": "binding result", "setting": "[13]", "value": "binds"}]}
